Results on 68 sequences are retold here after the domain aggregation screens of Martell et al. (2025).

The nature of the data set: soluble fraction after stress (log2 fold change); higher = more stays soluble; pooled small domains, quantitative proteomics. To be noted: stress: 50 degC. In short, it runs like this:
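The stress applied to every library was 50°C. These custom libraries of small protein domains were pooled and measured at high throughput with quantitative proteomics as the read-out. Aggregation propensity is expressed as the base-two logarithm of the fold change in how much of each protein remains soluble. The higher the value, the more of that protein stays in solution.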
“HMLRKTTDLDAIRSVAKDVIDQNPKAVEDYVGGKESAIGFLLGQVMRATKGTADANTVRELLKEILDS”: the “soluble fraction (log2)” value was 0.311.

As to “HMLRPMVAILNKNISKGQVISEDYIKFEVRPERQIHGAYHDISEVLGRKTKNNIAAGTILKVRHLDT”, the “soluble fraction (log2)” value was -0.201.

Regarding “HMLRQVSDSNALETAVKKVLDANPEEVERYKSGNKKLISFFVGQTMKATKGAGNPKEINSILAKLL”, the “soluble fraction (log2)” value came to 0.0186.

Turning to “HMLSAEAAAARTAISTLSEDQQRVLGLSIQRGLVHEQIARATGLPLGTVKTHIRRGLIKVREALEAQAAG”, the “soluble fraction (log2)” value was -0.00728.

Consider “HMLSAGETYTLGYLKASDGILFTAADGSEQTVMQRVQVRLYDNGDGTYTARLADDIAYSAVVTEDMIDK”, for which the “soluble fraction (log2)” value is -0.116.

Regarding “HMLSDAAAMESIAYEAIRQMEPDTYYIIGAGTTTRGIMEVLGLKNTLIGVDLIRNKELVANDLGGKELLSY”, the “soluble fraction (log2)” value was found to be 0.0353.

“HMLSDEDMMELAIIENLQRENLNPIEEARAYESLIDKGFTHTEIADKMGKSRPYISNSIRLLSL”: the “soluble fraction (log2)” value was found to be 0.162.

On to “HMLSDFHLNHDSIVNHTVQKKETIFSLSKKYGLSINEIIKANPGIQIDKLKRRSILIIPLRKK”, for which the “soluble fraction (log2)” value was -1.9.

Consider “HMLSDLTPGDLVVHATHGIGRFLGIRKLELEGMTKDYITIQYRGNENLYVPVTQMDLVSRYI”, for which the “soluble fraction (log2)” value is -0.292.

For the sequence “HMLSGGEVKRIEIATILARKSGLMIFDEPEAGIDLWSFARLVETFEDIRSNTSGSLVIISHQ”, the “soluble fraction (log2)” value is 0.00488.

On to “HMLSKEERRSQLLDLGVRLLSTRSLDELSIDLLAEEAGISRGLLYHYFGNKHDFHEAVVRRAADDLI”, for which the “soluble fraction (log2)” value was -1.75.

“HMLSLKAQVYEIIRQKILQQEYALGEKINIDTVADELKISNSPIREALMMLSQDGLIEMVPNNGARVI”: the “soluble fraction (log2)” value is -0.772.

As to “HMLSLSDIINDVMERLTREKNLTFDELLGEKRERRRIVYTFLALLELIRLKMIKAYQTAAFGVIRIFPR”, the “soluble fraction (log2)” value was -0.898.

As to “HMLSLTSRQQEIFDLIKGHIKKTGMPPTRSEIALHFGFRSANSAEEHLRALARKGFIELIPGTSRGIKLIE”, the “soluble fraction (log2)” value is -0.892.

As for “HMLSPPWYEYHRKVQAMFGRDPEVHIKDLDDLGDGKFSYMILVYNKEKAEAIKAILPQKVEMGNVTIETAI”, the “soluble fraction (log2)” value was determined as 0.361.

As for “HMLSRNEWLVMEALWERPSTLMELVRQLGQEPPGWAKSTTATMVRRMEEKGLIRHEAGSKARVYHP”, the “soluble fraction (log2)” value is -0.885.

For the sequence “HMLSSAAAIDRILAGGTAAMNHRQFDAALTSFNTVIEMRPDFAEGWNKRATLYYLIGEYERSIADVERTLA”, the “soluble fraction (log2)” value was found to be 0.1.

As to “HMLSTRERMSSLMAQLQVQQFMPFHRLFTISEGRMGVIVTFLAMMELVKENLIKLIQAQEYGPIHVSLG”, the “soluble fraction (log2)” value stood at 0.0428.

“HMLSVRERMSAILVSLEGERYADFTGLFDPTEGKGGVTVTFLAILELLKESMIDVVQNELYGPIHVRAA”: the “soluble fraction (log2)” value is -0.368.

“HMLSVRNRMSDVLKSLDDGEFHRFESLFNLEEGRLGVVVTFLAMLELAKEMLVEIVQNESLGPIYLKSR”: the “soluble fraction (log2)” value is -0.0774.

“HMLSVRQRMGELLERLADGQFHRFESLFTVEEGKLGVVVTFLGLLTLAKEQLLDIVQEGPTAPIYVKSLA”: the “soluble fraction (log2)” value was -0.437.

Take “HMLSVTLTVLPQQAGERLDAFAAAESTLSRSAAAKLIEDGQITVNGARAAKNYRLRAGDVIEIDEPEPI”: the “soluble fraction (log2)” value was found to be 0.00149.

For “HMLTAPMPGTIQQILVTKGQKVRSGQTLMILEAMKMEHKIKAPNSGEIISINYSLGNRVEMGANLIEI”, the “soluble fraction (log2)” value was -1.13.

With “HMLTDAAAVKRSVRNLVQYGFYEKPFHPEIGSGVRDLLFENMTPFVANNLSKQIEEIITNYEPRA”, the “soluble fraction (log2)” value is -0.396.

“HMLTDMSKIRKVLKLYGKGNSKLFISTYLSLSRNTVKKYISLFEVSGKTIEEILAKSDSELELLFSG”: the “soluble fraction (log2)” value was -0.919.

As for “HMLTEREQDTLNFIRQYIDEQGRSPLVSEIAKGLGIKSQGTTHRYIQALVDAGLLERHVGRTRGLHLT”, the “soluble fraction (log2)” value came to 0.0721.

Turning to “HMLTGADAEKATAAAQAEFPGGTVLRVETDADGTYEAHVRKADGTEVEVKMDKDFKVTSVEE”, the “soluble fraction (log2)” value turned out to be 0.0905.

For the sequence “HMLTLAVPNSINMRLDKYLSENIDYLSRSKIQGLINDGKVTINGENEKSSYKLNGDESIVIYYEE”, the “soluble fraction (log2)” value is -0.0746.

In the case of “HMLTPQEIGSRLKLVRQGLQLKQQEVAEIIGTSQLKISKIEQGATVTTPDFLKLLAFYSQSVSLDILF”, the “soluble fraction (log2)” value is -0.564.

With “HMLTRQRKQLLEYLSKHTDEQMTARQIADALTAESISISAVYRNLSALEEEGILKRSIRENTREVYYQYIA”, the “soluble fraction (log2)” value was -0.973.

“HMLTSIDQMLKLAMPDSDITVSKMNGLILLTGTVKAPEDAAEAERLVQAFSAPPPGQPPVTVVSRLRTA”: the “soluble fraction (log2)” value came out at 0.0549.

Take “HMLTTMSSQWKPSLDAIEILEKSGIAYSFIEDAIPEFVLYWRERGISHGAWNTKFVEHIRKQWAKFEAS”: the “soluble fraction (log2)” value is -1.35.

For “HMLTTVAAQRAALHQEEDITKLREIILKLVPFWGLDGGAYADKETSIQLERQYRESFDQAVSAARRSGQA”, the “soluble fraction (log2)” value was -0.303.

Consider “HMLTWNQLGLITKPVVFLDGTGYYARLFEAFEHMISTGFVKENYRAMMNRATSVEEAVRIASSPAPKVD”, for which the “soluble fraction (log2)” value was -0.0676.

Turning to “HMLVGGPDTPSKVTVSFDLGSRQAVDELTERAGAAGGRIGDIDDYPFMYQRQFDDPDGYHYSPFWMKP”, the “soluble fraction (log2)” value was -0.149.

In the case of “HMLVTQSITVPMAMSGIRLDAALAMLFPDHSRNRLKAWLDDGHILVDGAVWAGKQRLEGNEEITATLPEAK”, the “soluble fraction (log2)” value is -0.207.

Regarding “HMLYDNQLPDWAGQMVKNHGLTISPKALVILVDHIGNDLSRIENEIEKLMLNLGTRKSITEDDVEN”, the “soluble fraction (log2)” value was -1.28.

In the case of “HMLYETLKKGDQGTSVKTLQEKLKALGYLTGAADGKYGAGTETAVKSFQKAAGLTETGTADPETLSAVYAA”, the “soluble fraction (log2)” value was 0.17.

As to “HMLYITEIQKKIMDAFLVVANESNSGTRITMNEIANKVRMTPQAIYRKHFKSVIEISDTIRD”, the “soluble fraction (log2)” value was -0.531.

For the sequence “HMMEERVIEFANVLRRNGVRVSLAENMDAFRALKSLGISDPLLFRHALRATLIKRGSDIQPFEELFDFFFL”, the “soluble fraction (log2)” value is -1.26.

For “HMNAAFMKAERLLAILNILLTGKRVSSTELAKKLEVSVRTVYRDVEALSEAGFPVYATMGRDGGFGLIEGF”, the “soluble fraction (log2)” value is -1.95.

For “HMNADAIIGRMGKVTEPITPDGYGRVEIDGDSWKATAVGGVAIAEGTRVSVVSLDSIIITVKTV”, the “soluble fraction (log2)” value is -0.293.

On to “HMNADAIVGRTGVVTEAIAADGFGRVQIDGDSWKAKASGNNGIDVGAKVRVLRIDSIILTVEK”, for which the “soluble fraction (log2)” value is 0.0422.

“HMNAELSTVQAAEVLNVSRPFLIKLLEDGAIPHRKVGKHRRVRMEDVMSYKAAIDTEREAVLDQLAA”: the “soluble fraction (log2)” value came out at 0.123.

For “HMNAISIDEAKKIALAKVSGASDQHIRIEADHDDGRLVYEGEIHYGRVEYEFEIDGSTGAIIEWDADRK”, the “soluble fraction (log2)” value is -0.341.

For the sequence “HMNAKKSTLQLDLLKQLLEGNKISLKDFSLSNEISIRTAQRYIEDLLEIFEKNIVKEGDFYSFIS”, the “soluble fraction (log2)” value is -2.3.

In the case of “HMNAKNPRALAIQYVFKMQMGNFLHAKTDNQQQEQERIMTLFNEENKNTILPRWGKELLSYINRN”, the “soluble fraction (log2)” value is -0.695.

In the case of “HMNDENIIIEEIKYFIKSNQIKEQEKLPSERNLSELFTVSRFSLRKALRHLVDTGYLYVKDKSGYYYQGD”, the “soluble fraction (log2)” value is -2.47.

In the case of “HMNDLIKMPYLVGQLYDDVASNQEYADFQFKITEGNDPDKQPGEIMKQDPAADIMVKKNAEVELLVNG”, the “soluble fraction (log2)” value came to 0.247.

On to “HMNDLKEDTITVQSVEYIDSDDGTMVYIKDTNHQVYKQAFKEDESLIRISAGDVLHVKYQPMDNEIHLL”, for which the “soluble fraction (log2)” value is -0.364.

For “HMNDMPELLSIKEASQWATEYLNKNVTTSNIAYLIQYGRIRKIGNNGSTQVLKDDLVKYYKDQK”, the “soluble fraction (log2)” value was -0.139.

On to “HMNDMWADITINANGKATLVVHTHEIKYLGLTGHLGKMEINGTAKEPVKDSSGDVVDYYFTFTDLDASMF”, for which the “soluble fraction (log2)” value worked out at 0.0763.

For the sequence “HMNDNFTPDDLNRLARIKDLPQAKKYALELISNKSAKPMKPEKVRWFANQLQKKKSVMDITKMMYDLLLA”, the “soluble fraction (log2)” value was -0.0441.

With “HMNDNTAINEFKKMVFTRMVHLQIDNAELSKLSGVTNSKILALKYGNSNTLKLGDIVKVAKTLNINLNDL”, the “soluble fraction (log2)” value is -2.7.

“HMNDPFVILGVSKDASQSEILEAYKQKRAYYQERVFDEGDEGAQAARMLTQLDDAYQQAMELSHES”: the “soluble fraction (log2)” value was -0.151.

Turning to “HMNDPIESLTPREREVLTLMAEGRTNAAIAAQLVVTEGAVEKHTQHIFAKLGLLPDSAVHRRVKAVLALLS”, the “soluble fraction (log2)” value is -1.75.

Consider “HMNDPNAPITENQLKAIHVLLDKLKVDDNLKHAYIADVLQLDNEPETLKTLTKAQGSMAIERMQLLKDN”, for which the “soluble fraction (log2)” value came out at 0.328.

As for “HMNDQLIYSDFIRQVQDGQITEVTISGLNIAGTRSDGSVFNTLRPYIEDPKLIDDLLSHNVRIQGAE”, the “soluble fraction (log2)” value is -0.2.

Turning to “HMNDRERIGKRIAQLRMEAGISQYKLAELTGLAPGNIARIETGKYSTGIDILSKIGDALGYQLDFI”, the “soluble fraction (log2)” value was -1.04.

In the case of “HMNDRLAGMEGQRGEAATNFDQGEGKVKVGDTVWLAKQSDSTVIVEGDQIVVTGSENGLLKVRL”, the “soluble fraction (log2)” value was -0.165.

On to “HMNDTLGVNIKRLRKEKGMTQDEVAKAVYTTRYNILRYESGKMTPSSEVIERLEKALGVPTGSLAQ”, for which the “soluble fraction (log2)” value was -0.332.

Turning to “HMNDTSLIIDNLMLKLGNNIKNFSEIYSLLRKNLAEYGEEFIKSKVDYVLKNFNDNIEENLKKLLTE”, the “soluble fraction (log2)” value is -0.218.

Regarding “HMNDVGKVLNQLGERDRMILLLTYWDELPLKEAARILEVSENNAKIILFRARSRFASLWSAGS”, the “soluble fraction (log2)” value is -3.13.

In the case of “HMNEAVVVPDVKGLTLDEADEFFKNSKLRYNVVDSVFSKDVAPGAIVELVPVAGSKVKENRIVFVTINAQ”, the “soluble fraction (log2)” value is -0.17.

With “HMNEDTEDIKNINSLVNKLTENNFDIIRDSIVKLINKEHLIPYIIETIIEKSILHHRYVHLYVSILKE”, the “soluble fraction (log2)” value worked out at 0.0794.

Consider “HMNEDYSSMVGKTGFALTILRPAGKIMIEEEVFDAVAINGYISKGQEVEVVRYENAQLYVKVK”, for which the “soluble fraction (log2)” value is -0.386.

Regarding “HMNEFGIPDKKLQDIETRVNSMSLEQLNAARSMLIDEQEALNSSTGSASSGRLKEIAAELSTIQKALIAIA”, the “soluble fraction (log2)” value is 0.163.

Take “HMNEFNEVVPDSLEGERLDRLLAFIGNISRSEASNIIKGGEVLINGKVVTRPSFKVTLGNRVEFSIRD”: the “soluble fraction (log2)” value was -0.387.
